Broadly, the Kd is a measure of binding affinity in units of concentration.

Test [1] deals with T1, Avi-tagged, biotinylated GDP-mannose transporter Vrg4 from Candida albicans (Candida albicans (SC5314 entry Q5A477), UniProt Q5A477).
T1 construct: also called biotinylated CaVrg4; source: S. cerevisiae strain BJ5460, purified as the untagged version, biotinylated using BirA ligase; not shown: Avi tag, C-terminal, kept
Nature of the test: ELISA. As to conditions: both partners purified. (In general: In an ELISA, binding on a coated surface is turned into a signal by an enzyme label.)

For test [2], the target named is GDP-mannose transporter Vrg4 from Candida albicans (Candida albicans, UniProt Q5A477).
GDP-mannose transporter Vrg4 from Candida albicans, sequence (Q5A477 34-371): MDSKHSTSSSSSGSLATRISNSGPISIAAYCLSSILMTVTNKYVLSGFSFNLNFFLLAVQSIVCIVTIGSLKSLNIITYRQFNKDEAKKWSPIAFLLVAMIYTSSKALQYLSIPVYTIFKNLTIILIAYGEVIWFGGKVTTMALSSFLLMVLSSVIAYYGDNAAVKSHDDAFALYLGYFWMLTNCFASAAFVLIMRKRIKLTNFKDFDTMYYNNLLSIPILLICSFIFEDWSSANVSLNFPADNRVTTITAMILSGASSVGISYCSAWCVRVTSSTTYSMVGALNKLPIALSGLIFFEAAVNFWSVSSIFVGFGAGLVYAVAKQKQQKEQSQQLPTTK

T1 sequence (Q5A477 34-371, one chain of several): as the sequence (Q5A477 34-371) above

B1: nanobody NB4 (VHH)
VHH: QVQLVESGGGLVQAGGSLRLSCAASGRTFRSYTLGWFRQAPGKEREFVAAIKWSTDTTYYADSVKGRFTISGDNAKNTVYLQMNSLKPEDTAVYFCAARSLSTVIAGPEIPWPYNSWGQGTQVTVSS
notes: not shown: Myc, C-terminal, kept; His, C-terminal, kept
For the molecule B1, the equilibrium dissociation constant (Kd) in test [1] was around 10 nM.

B2: nanobody NB3 (VHH)
VHH: QVQLVESGGGLVQPGGSLRLSCAASGSISEINVMGWYRQAPGKQRELVARITTGGSTNYADSVKGRFTISRDNAKNTVYLQMNSLKPEDTAVYMCNAHRRVVMEWGPLGYDYWGQGTQVTVSS
notes: as for B1
B2 gave a dissociation constant Kd in test [1] of around 3 nM.

B3: NB1 (VHH)
VHH: QVQLVESGGGLVQPGGSLRLSCAASGTSFTINVMAWYRQAPGKQRELVAGITSGGTTNYADAVKGRFAITSDNAKNTVYLQMNGLKSEDTAVYYCNAATTVPYPDYGFSLGTYDYEAWGQGTQVTVSS
Take B3: in test [2], the Kd is 109 nM.

B4: NB2 (VHH)
VHH: QVQLVESGGGLVQPGGSLRLSCAASRIKRNIMSMGWYRQAPGKQRELVATLLRGGVTNYADSVKGRFTISRDNAKNTLYLQMNSLKPEDTAVYYCTLKEQMFDTTYWGQGTQVTVSS
As to B4, in test [2], the Kd came to 125 nM.
